PMC3272701

Target: tight-coupled 70S ribosome from Thermus thermophilus (Thermus thermophilus)
Test: co-sedimentation

occupancy of EF-G in the complexes: 60 to 70%
Substance: elongation factor G (EF-G), Thermus thermophilus HB8 (from UniProt Q5SHN5 1-691) (enzyme)
